The source of these data is paper PMC5812564.

Assay [1] has as its target S100A1 as used in the titrations with the RAGE V domain (mutant-S100A1 (C85S) by the introduction) (human). Put plainly: NMR titration; 1H-15N HSQC, 15N-labelled protein with the unlabelled partner added, each pair in both directions, molar ratios 1:0 and 1:1 (1:0.66 and 1:1 for Kd); 25 °C; 20 mM Tris, 5 mM CaCl2, 5 mM DTT, 50 mM (NH4)2SO4, pH 7.2; Kd as the mean over selected residues.

Assay [2] deals with RAGE V domain (UniProt Q15109).
Assay [3] has as its target S100A1 (human). Description: other fluorescence titration; intrinsic tryptophan fluorescence of 3.50 μM S100A1, S100B added from 0 to 42 μM in steps of 2 μM; excitation 295 nm, emission read at 351 nm.
Assay [4] concerns the target S100A1 (human). Description: NMR titration; 1H-15N HSQC, 15N-labelled protein with the unlabelled partner added, each pair in both directions, molar ratios 1:0 and 1:1 (1:0.66 and 1:1 for Kd); 25 °C; 20 mM Tris, 5 mM CaCl2, 5 mM DTT, 50 mM (NH4)2SO4, pH 7.2; Kd as the mean over selected residues.

Take “RAGE V domain (from UniProt Q15109 24-128) (domain or fragment)”: in assay [1], the Kd was found to be 6.13 µM.
In assay [2], S100A1 (natural protein) returned a WST-1 proliferation assay, serum-starved SW480 cells (RAGE highly expressed) treated for 48 h with 10, 50 and 100 nM S100A1; viable cell count against the serum-free control of 1.53 fold; a WST-1 proliferation assay, serum-starved SW480 cells treated for 48 h with 100 nM S100A1 and 100 nM S100B; viable cell count against the serum-free control of 1.39 fold.
For S100B (natural protein), the Kd in assay [3] was determined as 1.9 µM; in assay [4], 5.9 µM.

In general, Kd refers to the equilibrium constant for the complex coming apart.
